These results are taken from patent US20190227052A1 (published 2019).

Positions count from the first letter of the chain named.

The target in the assay is human NRP1 protein (human, UniProt O14786 22-856). Briefly: ELISA.

A word on the Kd: it is a measure of binding affinity in units of concentration.

Sequence of human NRP1 protein (O14786 22-856): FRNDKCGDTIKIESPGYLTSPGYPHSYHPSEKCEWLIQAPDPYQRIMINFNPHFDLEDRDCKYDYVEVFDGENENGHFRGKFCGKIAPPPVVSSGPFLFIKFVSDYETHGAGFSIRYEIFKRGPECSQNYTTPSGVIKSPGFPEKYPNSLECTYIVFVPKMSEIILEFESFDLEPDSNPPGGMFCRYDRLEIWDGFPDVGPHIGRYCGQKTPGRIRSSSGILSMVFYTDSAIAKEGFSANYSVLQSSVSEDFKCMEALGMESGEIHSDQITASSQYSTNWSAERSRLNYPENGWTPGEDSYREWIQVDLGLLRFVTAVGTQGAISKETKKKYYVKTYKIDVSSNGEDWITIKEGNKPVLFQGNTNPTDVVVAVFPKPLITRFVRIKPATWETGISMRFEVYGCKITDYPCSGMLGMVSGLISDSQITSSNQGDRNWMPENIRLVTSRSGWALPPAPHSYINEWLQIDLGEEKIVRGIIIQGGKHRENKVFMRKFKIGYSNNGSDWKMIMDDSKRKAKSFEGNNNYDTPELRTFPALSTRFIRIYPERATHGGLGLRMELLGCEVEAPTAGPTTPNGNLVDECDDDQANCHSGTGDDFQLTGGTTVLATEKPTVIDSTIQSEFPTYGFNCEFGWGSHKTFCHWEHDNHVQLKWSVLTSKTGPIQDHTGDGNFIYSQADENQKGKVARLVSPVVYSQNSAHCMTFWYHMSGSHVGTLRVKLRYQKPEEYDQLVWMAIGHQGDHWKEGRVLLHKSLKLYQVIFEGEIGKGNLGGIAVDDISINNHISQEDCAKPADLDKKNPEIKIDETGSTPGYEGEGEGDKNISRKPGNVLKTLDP

B1: 1A03 anti-NRP1 IgG antibody (antibody, V domains shown)
VH: EVQLLESGGGLVQFGGSLRLSQAASGFTFSSYYMSWVRQAFGKGLEWVSAISFGSSNKYYADSVQGRFTISRDNSKNTLYLQMNELRAEDTAVYYCARRKKSFDYWGQGTLVTVSS
VL: QSVLTQFFSASGTPGQRVTISCSGFSSNIGNNDVSWYQQLFGTAPKLLIYSCNNRPSGVPDRFSGSKSGTSASLAISGLSSDEADYYCGAWVASLSAYVFGGGTKLTVTL
In the case of B1, the Kd was 1110 nM.

B2: IRCR-101 (3H10 converted into IgG format) (antibody, V domains shown)
VH: B1 VH with G15Q, G16Q, G26Q, F53P, Q65K, K101Y, S102M
VL: GSVLTQPPSASGTPGQRVTISCTGESSNIGNNDVYWYQQLPGTAFKLLIYSQSNRSGMPDRFSGSKSGTSASLAISGLRSEDEADYYCASWDSSLSGYVFGGGTKLTVTL
Regarding B2, the Kd was determined as 426 nM.
